± gives the standard error. Fewer inactive variants are shown than the library holds.
B1: glmS ribozyme (parent)
chain: AUAAAAGCGCCAGAACUACAGAAAUGUAGUUGACGAGGAGGAGGUUUAUCGAAUUUUCGGCGGAUGCCUCCAAA

Variants of: B1
Test: self-cleavage kobs at 2500 uM GlcN6P; higher = faster cleavage; RNA array
Details: with glucosamine-6-phosphate
In short: (§1)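 Sequenced MiSeq chips were the platform: E. coli RNA polymerase transcribed barcoded ribozyme variants on them in situ, and a hybridised Cy3 probe tracked these at 37 °C. After glucosamine-6-phosphate (40 μM to 10 mM) in HEPES/KCl/Mg(OAc)2 buffer was flowed in, tiles were imaged over ~14 h. Signals normalised to baseline and to non-cleaving reference variants were reduced to per-tile medians and fit to one- or two-exponential decays to obtain kobs. kcat and KM were derived through weighted Michaelis–Menten fits across concentrations.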

Row | Variant | self-cleavage kobs at 2500 uM GlcN6P [s⁻¹]
1 | A36U G38C U69C | < 1e-05
2 | C8U A42G G43U U49G | < 1e-05
3 | U47A A48C G51U | < 1e-05
4 | C10A A15C U46A C61U U65C | < 1e-05
5 | U30G U55A C61G C71G | 5.45e-05 ± 2.4e-05
6 | C10G G35U U46G C68A | < 1e-05
7 | G35C A53G C71U | < 1e-05
8 | C11A G43U U54G | < 1e-05
9 | G41U C50U G51U | < 1e-05
10 | A36U U69G C71A | 0.000556 ± 0.00021
11 | G63C A64C C67A | < 1e-05
12 | G41U C50G U57C C58U C70U | < 1e-05
13 | G41U U47C G51U | < 1e-05
14 | G38A A39U A64C | < 1e-05
15 | C8G A15U U55C | < 1e-05
16 | U30C U31C A53U U55A | 0.00034 ± 7.2e-05
17 | G7U C16U U46A | < 1e-05
18 | C8G C10U G37U A42C U54G A64G C70G | < 1e-05
19 | G32U U56G C71A | 9.14e-05 ± 2e-05
20 | G44U U46G C67A | 0.00376 ± 0.00093
21 | A15G G35A U46C A53C | < 1e-05
22 | A24C G26U G40U | 0.00202 ± 0.00051
23 | U31G G32A A64G | 0.000581 ± 0.00022
24 | C16U C34G A53C | < 1e-05

Row | Variant | self-cleavage kobs at 2500 uM GlcN6P [s⁻¹]
25 | A15G G38U U57A G62U U69A | 0.000891 ± 0.00032
26 | A14G U31G G43C | < 1e-05
27 | A6U G35U G59U | < 1e-05
28 | G7C A42G G59U | < 1e-05
29 | G9C A52U C58U | < 1e-05
30 | G13C A42U G43C G51C U57G A64G C71U | < 1e-05
31 | G7C U30G G37A | < 1e-05
32 | C50A U65G C67A | 8.64e-05 ± 2.2e-05
33 | C8A U45G U54G G66A | < 1e-05
34 | G40C A64U C68U | < 1e-05
35 | C11G C50U C61U C70G | 0.000127 ± 3.7e-05
36 | A36C U47G A52G G60C | < 1e-05
37 | C16U G51C U54C U57G | < 1e-05
38 | G59U G62C C71A | < 1e-05
39 | G32C G35U G41C C58A A64G | < 1e-05
40 | A12G U56G C70G | 0.000113 ± 3e-05
41 | A12C U49G G62U | < 1e-05
42 | C10G A36C G60C C70U | < 1e-05
43 | G13C A33G G35A A48G A64G | < 1e-05
44 | G7A U31C A39G A52U | < 1e-05
45 | U31G G32A U46G A52U | < 1e-05
46 | G7C C34A U46G G63C | < 1e-05
47 | A6U G29U A36G G44A U55C | < 1e-05
48 | C16G G43U U45A U65G C68U C70U | < 1e-05

Row | Variant | self-cleavage kobs at 2500 uM GlcN6P [s⁻¹]
49 | C8G U46G A48U U55G G66U C70U | < 1e-05
50 | A42U A53G C61A C67G | < 1e-05
51 | U30A C50G U56A C67U | 7.78e-05 ± 1.9e-05
52 | C10A G40A U47C A48G C70U | < 1e-05
53 | G43U A48U G62A C67A | < 1e-05
54 | C50U C58A C70G | 7.55e-05 ± 2.9e-05
55 | A39G U47G C68G | 5.94e-05 ± 2.4e-05
56 | A14C A33G G35C G38C G44A A48U C50U | < 1e-05
57 | C16A A33C C71A | < 1e-05
58 | G7A A12G G35A | < 1e-05
59 | A6G U30C G44U A52C G63U | < 1e-05
60 | C16U G37C G51C G59C G60C | < 1e-05
61 | U45G G60A C67G C68U | < 1e-05
62 | C8G G35A U65C | < 1e-05
63 | A14G G41U U69A | 8.6e-05 ± 2e-05
64 | C10A G51U C67G | 0.000109 ± 5.4e-05
65 | C8A A36G A53G | < 1e-05
66 | G7A G9A G38A U65G | < 1e-05
67 | C10U A14C G32C | < 1e-05
68 | A12U C16U C70A | 0.000361 ± 0.00013
69 | G7C G13A A52U G66C | < 1e-05
70 | A52G C68U C70U | 0.000745 ± 0.00024
71 | A15U A39G G51A | < 1e-05
72 | A12C A15G G43C | < 1e-05

Variants of: B1
Test: self-cleavage kobs at 10000 uM GlcN6P; higher = faster cleavage; RNA array
Details: with glucosamine-6-phosphate
In short: as §1

Row | Variant | self-cleavage kobs at 10000 uM GlcN6P [s⁻¹]
73 | G35C A53G C71U | < 1e-05
74 | A36U U69G C71A | 5.84e-05 ± 1.8e-05
75 | C16U G29U G40U C50U | < 1e-05
76 | A6G U31C C34G | < 1e-05
77 | A24C G26U G40U | 0.00158 ± 0.00035
78 | U31G G32A A64G | 0.00106 ± 0.00026
79 | G40C A64U C68U | < 1e-05
80 | C11G C50U C61U C70G | 3.43e-05 ± 1.4e-05
81 | A12G U56G C70G | 7.52e-05 ± 2e-05
82 | G37A A42C | 2.95e-05 ± 8.6e-06
83 | G7C C68A C71A | < 1e-05
84 | C34U G37U U46C U47A G62A | < 1e-05
85 | U45C U65G C67A | 0.000786 ± 0.00016
86 | G7A G9A G38A U65G | < 1e-05
87 | A12C A15G G43C | < 1e-05
